Values quoted from earlier work in publication PMC10584158.

Molecular target: IL-6 (Homo sapiens) (UniProt P05231)
Sequence (P05231 30-212): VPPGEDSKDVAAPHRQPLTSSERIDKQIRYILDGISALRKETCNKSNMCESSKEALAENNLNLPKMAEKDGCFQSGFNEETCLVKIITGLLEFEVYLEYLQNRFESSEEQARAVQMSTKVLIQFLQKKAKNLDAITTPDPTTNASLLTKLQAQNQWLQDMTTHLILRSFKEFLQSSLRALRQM

Kd: 4 pM
Substance: Clazakizumab
